The Kd is the concentration at which binding is half-saturated. Low values mean tighter binding, high ones weaker binding.

Consider three molecules from patent US20240415975A1 (ABTIS, published 2024).

“And” between values parts separate entries of the source, which are not always exact repeats. Equal entries are not always repeated.

The target of experiment [1] is CLDN18.2 virus-like particle (VLP) in which the claudin 18.2 protein (CLDN18.2) was expressed (UniProt P56856). Briefly: indirect ELISA (OD 450 nm) on plate coated with CLDN18.2 VLP; regression in GraphPad Prism. A general note: ELISA stands for enzyme-linked immunosorbent assay.
In experiment [2] the target is Claudin 18.2 protein (CLDN18.2), expressed on cells (UniProt P56856). Briefly: cell-based ELISA (OD 450 nm) on PATU8988S cells (CLDN18.2+); regression in GraphPad Prism.
Experiment [3] shares this target. Briefly: cell-based ELISA (OD 450 nm) on SNU601 cells (CLDN18.2+); regression in GraphPad Prism.
Experiment [4] shares this target. The experiment is described as follows: cell-based ELISA (OD 450 nm) on MIA PaCa-2-CLDN18.2 cells; regression in GraphPad Prism.
Experiment [5] has as its target T1, Claudin 18.1 protein (CLDN18.1), expressed on CHO-K1 cells (UniProt P56856 1-261, limits assumed).
T1 construct: whole, on cells; also called CLDN18.1~CHO-K1
Briefly: cell-based ELISA on CHO-K1 cells transiently transfected with CLDN18.1.
Excerpt: (§1) The measured results were used for regression analysis in GraphPad PRISM® 9.0 software to calculate EC50 and Bmax.

Experiment [6] has as its target T2, Claudin 18.2 protein (CLDN18.2), expressed on cells (UniProt P56856-2 1-261). Briefly: cell-based or functional assay.
The target of experiment [7] is T3, CLDN18.2 virus-like particle (VLP) in which the claudin 18.2 protein (CLDN18.2) was expressed (UniProt P56856 1-261).
T3 construct: Bought reagent; also called CLDN18.2 VLP; CLDN18.2~VLP
Briefly: indirect ELISA on plate coated with CLDN18.2 VLP; regression in GraphPad Prism (row labelled Kd, text says EC50).

The target in experiment [8] is T2, Claudin 18.2 protein (CLDN18.2), …. Briefly: cell-based ELISA on CHO-K1 cells transiently transfected with CLDN18.2; regression in GraphPad Prism (row labelled Kd, text says EC50).
Excerpt: as §1

Take Zolbetuximab (antibody-B): the Bmax in experiment [1] is 2.13; in experiment [2], 1.21; in experiment [3], 1.7; in experiment [4], 3.05.

B1: ADC-A (MMAE conjugated with antibody-A) (antibody, human IgG1, kappa, V domains shown)
VH: QVQLVESGGGVVQPGRSLRLSCAASGFSLTTYGVHWVRQAPGKGLEWVAVIWAGGSTNYNSALMSRFTISRDNSKNTLYLQMNSLRAEDTAVYYCARAAYYGNGLDYWGQGTMVTVSS
VL: DIVMTQSPLSLPVTPGEPASISCKSSQTLLNSGNQKNYLTWYLQKPGQSPQLLIYWASTGESGVPDRFSGSGSGTDFTLKISRVEAEDVGVYYCQNAYFYPFTFGGGTKVEIKR
modifications: payload (PEG8)2-BG-MMAE linked through a linker to lysine residue 246 or 248 (EU numbering) of each heavy chain (DAR 2)
notes: which of K246 or K248 carries the payload is not resolved
Regarding B1, the binding result in experiment [5] is listed as “no binding”. Besides, in experiment [6], the “IC50 (nM), cell viability (CellTiter-Glo), MIA PaCa-2 (CLDN18.2+)” value came out at 0.101 nM; the “IC50 (nM), cell viability (CellTiter-Glo), NUGC4 (CLDN18.2+)” value came to 1.59 nM; the “IC50 (nM), cell viability (CellTiter-Glo), PATU8988S (CLDN18.2+)” value came out at 0.279 nM; the “IC50 (nM), cell viability (CellTiter-Glo), SNU601 (CLDN18.2+)” value was 0.095 nM. Besides, the Kd in experiment [7] is 0.0527 µg/mL and 0.351 nM. In addition, in experiment [8], the dissociation constant Kd was 0.123 µg/mL and 0.82 nM.

B2: anti-Claudin 18.2 antibody (Anti-CLDN18.2 mAb) (antibody-A) (antibody, human IgG1, kappa, V domains shown)
VH: QVQLVESGGGVVQPGRSLRLSCAASGFSLTTYGVHWVRQAPGKGLEWVAVIWAGGSTNYNSALMSRFTISRDNSKNTLYLQMNSLRAEDTAVYYCARAAYYGNGLDYWGQGTMVTVSS
VL: DIVMTQSPLSLPVTPGEPASISCKSSQTLLNSGNQKNYLTWYLQKPGQSPQLLIYWASTGESGVPDRFSGSGSGTDFTLKISRVEAEDVGVYYCQNAYFYPFTFGGGTKVEIKR
notes: two heavy and two light chains; Elsewhere called an IgG1 type anti-CLDN18.2 antibody; Obtained from GenScript ProBio
On to B2, for which the binding result in experiment [5] is “no binding”. Further, the Kd in experiment [7] is 0.0319 µg/mL and 0.212 nM; in experiment [8], 0.0636 µg/mL and 0.424 nM.
